Columns and labels:
pICln = pICln (UniProt P54105); assay: AUC
PRMT5cat (human) = PRMT5cat (human) (UniProt O14744); assay: AUC

Chain of SmD3 (P62318 whole entry): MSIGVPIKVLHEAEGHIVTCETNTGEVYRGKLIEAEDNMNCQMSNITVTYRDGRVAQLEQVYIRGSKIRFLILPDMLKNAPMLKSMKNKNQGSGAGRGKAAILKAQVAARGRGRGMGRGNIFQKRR
Chain of pICln (P54105 whole entry): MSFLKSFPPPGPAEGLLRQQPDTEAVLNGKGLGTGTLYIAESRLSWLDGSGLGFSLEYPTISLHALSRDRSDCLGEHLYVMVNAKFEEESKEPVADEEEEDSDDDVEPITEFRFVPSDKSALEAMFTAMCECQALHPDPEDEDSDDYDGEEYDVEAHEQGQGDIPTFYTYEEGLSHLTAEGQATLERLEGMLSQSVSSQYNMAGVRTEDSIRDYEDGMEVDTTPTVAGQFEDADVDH

stoichiometry N (pICln)	Kd (PRMT5cat (human))	stoichiometry N (PRMT5cat (human))	Substance
1	–	–	SmD3 (from UniProt P62318 1-126) (natural protein)
–	20 µM	2	PRMT5cat (from UniProt O14744 296-637) (domain or fragment)

Source: article PMC2755859
